US20210292381A1

B1: P2g (modified gluten peptide …) (peptide)
peptide: KLPYPQGRLPGPQPQ
B2: P3c (modified gluten peptide …) (peptide)
peptide: PYPHPRLPYTQPQPF
B3: P3d (modified gluten peptide …) (peptide)
peptide: PYSQPESPYMQPQPF
B4: P3f (modified gluten peptide …) (peptide)
peptide: PYPHPWLRGPQPQPF
B5: P1f (modified gluten peptide …) (peptide)
peptide: LQLQPFDQPRLPWPQ
B6: P1g (modified gluten peptide …) (peptide)
peptide: LQLQPFWQPKLPGPQ

Biological target: purified MHC
Test: competition with radiolabeled known MHC binding peptide for purified MHC

Binder	IC50
B1	3.75 µM
B2	2.99 µM
B3	1.99 µM
B4	0.879 µM
B5	5.44 µM
B6	11.2 µM
